Laboratory results: PMC7334584 (Proceedings of the National Academy of Sciences of the …, 2020)

B1: Sulfolobus acidocaldarius Rad50 (enzyme, UniProt O33600 1-886, looked up)
chain: MIIREIRLQNFLSHEDTTVKFEGSINVIIGNNGAGKSSIIDGILFGLFKRTNRDIGKNEELIKKGKKSGQVSIKFEINGDTYLIDRNVGETSRDTISLLKEGKIITLARQSTTVNNKIKEILGFDHKILMSTTIIGQGSVESVFSDFPEVMKELLKINKLEMLRESNGPIHSLIKVLTDRIRSLQSIKDILKREEAEIDRLKKEIEEIKVKLENIEREAKEKEDELNQYNTEFNRIKEIKVQYDILSGELSVVNKKIEEIALRLKDFEEKEKRYNKIETEVKELDENREKINTISSFKSILVQIDSLKSQINVVENDLKRKKEKLKRKKELEEKEKQYEEIEKRKKELEEKEKQYEEIEKRLTYVLKNIERQKNEIEKLNYVDTQDLENKIKDVSDRINQIDNELKGLLDRRGDLNGRKEQTLKIYNNLNSIEDDRCPICGRPLDSEHKAKIREEIKVQLLELNKQITALQARINSLIKEREELEATRNKLQLELQKRSKEKGIYEAKLKELQRLEEEKNKLQNEILSLLSYHQEFENIAEKEKELIDYHEEYLKNSDILEEDIQEQEQRLNELNSKLSELEKSYNDYKAKYQFLPADLKSLVSLEERIRRRISELEKLKIEYERLKEEITRMKGLKEEYEKLKEEEDALLNRISELGYSEKRYKQLEEIIDKLSKILSGIEADKGKIKGSLEEKIKNIEEKERNIEELRNKMNEESKLNLGISKLQKLREVLDNKHLQSHIMNIVRNQIENNVNEVIAKFDLSFSAVEIDFVGKSELYVYTASGQKIHINALSGGERISIALALRLAIAKALMNQFSTLILDEPTVNLDEYRRKELIDVIRSAIEIVPQIILVTHDQELIQAGDYIIRVEKKGDTSKVEVSSYDR

Key:
[1] = molecular target: B1; assay: atomic force microscopy
[2] = molecular target: the molecule itself; assay: atomic force microscopy

Binder	binding result [1]	binding result [2]
Sulfolobus acidocaldarius Mre11 (enzyme, UniProt Q8NKQ0 1-382, looked up) MQLLHISDTHLGKRQYNLESREKDVYDTFTQLIDIAINEHVKAVIHTGDLFDVNNPPNRAKLHAIKELKRLKDHNIPFICIAGDHDSPKRKEEIYPQRILEEFNLIKILQKIDNRVKLENVEVYGISHISNVSVNDLKEQLSKVKPETRKSILMLHQGIRTYLPYQGAWQIELSDLPKGFSLYAVGHLHSRRKDYLDGGALIEIAGSPDIMREEEIEDYQKSKKGATLIDMSGDLPSINYINVNIRDQLVLDINVDKIEQSIESVIQKLKENVKNDKKPILHIELEGTVPIRKDVLMTKLQALRDYVEHYRIYKNNIVSIKEENLKTKLKTTYSSLNDIIADYLKGIGYTDEETKIIIDIINEEDEKKVEELLKKFAGVEDK	binds	–
B1	–	binds
